These results are taken from patent publication WO2010064089A1.

In experiment [1] the target is C-Met-Rluc and C-Met-K1100A-YFP co-expressed in a CHO stable cell line (c-Met dimerization BRET model) (R. reniformis), P08581. The experiment in a line: cell-based or functional assay.
Experiment [2] concerns the target C-Met-Rluc expressed with a mutated form of Gab1 fused to YFP in a CHO stable cell line (c-Met activation BRET model) (R. reniformis), P08581. As to the kind of experiment: cell-based or functional assay.

B1: [224G11][IgG2 chim] (antibody)
heavy: EVQLQQSGPELVKPGASVKISCKTSGYIFTAYTMHWVRQSLGESLDWIGGIKPNNGLANYNQKFKGKATLTVDKSSSTAYMDLRSLTSEDSAVYYCARSEITTEFDYWGQGTALTVSSASTKGPSVFPLAPCSRSTSESTAALGCLVKDYFPEPVTVSWNSGALTSGVHTFPAVLQSSGLYSLSSVVTVPSSNFGTQTYTCNVDHKPSNTKVDKTVERKCCVECPPCPAPPVAGPSVFLFPPKPKDTLMISRTPEVTCVVVDVSHEDPEVQFNWYVDGVEVHNAKTKPREEQFNSTFRVVSVLTVVHQDWLNGKEYKCKVSNKGLPAPIEKTISKTKGQPREPQVYTLPPSREEMTKNQVSLTCLVKGFYPSDIAVEWESNGQPENNYKTTPPMLDSDGSFFLYSKLTVDKSRWQQGNVFSCSVMHEALHNHYTQKSLSLSPG
light: DIVLTQSPASLAVSLGQRATISCRASESVDSYANSFMHWYQQKPGQPPKLLIYRASNLESGIPARFSGSGSRTDFTLTINPVEADDVATYYCQQSKEDPLTFGSGTKLEMKRTVAAPSVFIFPPSDEQLKSGTASVVCLLNNFYPREAKVQWKVDNALQSGNSQESVTEQDSKDSTYSLSSTLTLSKADYEKHKVYACEVTHQGLSSPVTKSFNRGEC
Turning to B1, the inhibition of the HGF induced BRET signal, c-Met dimerization model in experiment [1] was found to be 62.4%. Moreover, the inhibition of the HGF effect, c-Met activation BRET model in experiment [2] is 66.3%.

B2: murine 224G11 Mab (antibody, mouse IgG1, V domains shown)
VH: EVQLQQSGPELVKPGASVKISCKTSGYIFTAYTMHWVRQSLGESLDWIGGIKPNNGLANYNQKFKGKATLTVDKSSSTAYMDLRSLTSEDSAVYYCARSEITTEFDYWGQGTALTVSS
VL: DIVLTQSPASLAVSLGQRATISCRASESVDSYANSFMHWYQQKPGQPPKLLIYRASNLESGIPARFSGSGSRTDFTLTINPVEADDVATYYCQQSKEDPLTFGSGTKLEMKR
In the case of B2, in experiment [1], the BRET signal with Mab alone, c-Met dimerization model (% of HGF-induced signal) is 21.3 and the inhibition of the HGF induced BRET signal, c-Met dimerization model turned out to be 59.4%. Also, in experiment [2], the inhibition of the HGF induced BRET signal, c-Met activation model turned out to be 56.4%.

B3: [224G11][MMCH chim] (antibody, human IgG1, V domains shown)
VH: B2 VH
VL: B2 VL
Consider B3, for which, in experiment [1], the inhibition of the HGF induced c-Met dimerization BRET signal is 52.5%. For the same molecule, in experiment [2], the BRET signal with Mab alone, c-Met activation model is -2% and the inhibition of the HGF induced activation BRET signal is 53.2%.

B4: [224G11][MUP9H chim] (antibody, human IgG1, V domains shown)
VH: B2 VH
VL: B2 VL
Turning to B4, the inhibition of the HGF induced c-Met dimerization BRET signal in experiment [1] was found to be 64.4%. For the same molecule, in experiment [2], the BRET signal with Mab alone, c-Met activation model is 7.6% and the inhibition of the HGF induced activation BRET signal is 64.4%.

B5: [224G11]chim (antibody, human IgG1, V domains shown)
VH: B2 VH
VL: B2 VL
As to B5, in experiment [1], the BRET signal with Mab alone, c-Met dimerization model (% of HGF-induced signal) was 46.6 and the inhibition of the HGF induced BRET signal, c-Met dimerization model came to 28.9%. Besides, in experiment [2], the BRET signal with Mab alone, c-Met activation model (% of the HGF induced signal) is 32.9 and the inhibition of the HGF induced BRET signal, c-Met activation model came to 34.5%.

B6: [224G11][MH chim] (antibody, human IgG1, V domains shown)
VH: B2 VH
VL: B2 VL
B6 yielded an inhibition of the HGF induced c-Met dimerization BRET signal in experiment [1] of 61.8%. In experiment [2], the BRET signal with Mab alone, c-Met activation model came to 5.1% and the inhibition of the HGF induced activation BRET signal is 59.7%.
